Measured values from publication PMC6487837.

Assay: confocal microscopy, plasma membrane localisation, HT1080 and HL-1 cells
Conditions: glycan lost; control: wild-type DSC2-eYFP

localisation_or_trafficking, no change:
Desmocollin-2 (DSC2): p.N166Q
Desmocollin-2 (DSC2): p.N392Q
Desmocollin-2 (DSC2): p.N546Q
Desmocollin-2 (DSC2): p.N629Q
